The record followed here is article doi:10.1101/321604.

The assay addresses mUHRF1 C-terminally tagged with GFP- and 6xHis-tag (mouse) (UniProt Q8VDF2). Nature of the assay: MST.
Sequence of UniProt Q8VDF2 (Q8VDF2 whole entry): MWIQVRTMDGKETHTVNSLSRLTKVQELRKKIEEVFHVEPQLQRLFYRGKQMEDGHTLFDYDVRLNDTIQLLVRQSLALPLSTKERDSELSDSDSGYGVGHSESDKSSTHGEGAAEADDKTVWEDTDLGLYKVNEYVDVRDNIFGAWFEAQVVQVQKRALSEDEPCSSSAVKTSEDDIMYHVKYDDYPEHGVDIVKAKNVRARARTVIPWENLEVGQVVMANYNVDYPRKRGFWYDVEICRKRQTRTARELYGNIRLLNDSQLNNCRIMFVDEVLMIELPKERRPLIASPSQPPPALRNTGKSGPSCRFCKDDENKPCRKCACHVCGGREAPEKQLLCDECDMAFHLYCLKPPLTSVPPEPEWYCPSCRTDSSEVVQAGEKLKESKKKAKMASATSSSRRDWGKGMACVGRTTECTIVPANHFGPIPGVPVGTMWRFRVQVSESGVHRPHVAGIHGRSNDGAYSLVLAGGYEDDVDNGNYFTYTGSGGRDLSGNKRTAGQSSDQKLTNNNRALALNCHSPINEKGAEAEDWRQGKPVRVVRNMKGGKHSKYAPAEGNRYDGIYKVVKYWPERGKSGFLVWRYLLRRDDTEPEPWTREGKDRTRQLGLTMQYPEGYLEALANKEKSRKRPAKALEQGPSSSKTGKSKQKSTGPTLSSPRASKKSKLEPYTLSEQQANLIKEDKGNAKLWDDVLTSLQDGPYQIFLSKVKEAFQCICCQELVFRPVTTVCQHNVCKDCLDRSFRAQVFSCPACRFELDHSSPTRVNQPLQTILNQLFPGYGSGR

One may read the Kd as the concentration at which binding is half-saturated. The substance “GST-mDPPA3 wild-type (from UniProt Q8QZY3 1-150) (natural protein)” came in with a Kd of 440 nM.
